One experiment deals with HLA-B*15:03. Briefly: IEDB peptide-MHC binding, purified MHC/competitive/radioactivity; filed as Kd, often an IC50 or EC50 that approximates it; ≥ and ≤ were set here for values at or beyond the usual limits of such assays.
Experiment [1] has as its target HLA-A*03:01. The experiment can be described thus: IEDB peptide-MHC binding, purified MHC/competitive/fluorescence; filed as Kd, often an IC50 or EC50 that approximates it; ≥ and ≤ were set here for values at or beyond the usual limits of such assays.
In another experiment the target is HLA-A*01:01. The experiment can be described thus: IEDB peptide-MHC binding, purified MHC/direct/fluorescence; filed as Kd, often an IC50 or EC50 that approximates it; ≥ and ≤ were set here for values at or beyond the usual limits of such assays.
Experiment [2] has as its target HLA-A*29:02. Described as above.
Experiment [3] has as its target HLA-B*15:01. Briefly: IEDB peptide-MHC binding, purified MHC/competitive/fluorescence; filed as Kd, often an IC50 or EC50 that approximates it; ≥ and ≤ were set here for values at or beyond the usual limits of such assays.
The target of experiment [4] is HLA-A*26:01. Described as above. The settings on record: source organism: Salmonella enterica subsp. enterica serovar Typhi.
For a further experiment, the target named is HLA-B*35:01. Described as above.
The target of the next experiment is HLA-A*31:01. Briefly: IEDB peptide-MHC binding, purified MHC/direct/fluorescence; filed as Kd, often an IC50 or EC50 that approximates it; ≥ and ≤ were set here for values at or beyond the usual limits of such assays.
Another experiment addresses HLA-B*44:02. The experiment is described as above.
In experiment [5] the target is HLA-B*15:01. The experiment is described as above.
In the next experiment the target is HLA-A*11:01. The description is as above.
In experiment [6] the target is HLA-A*03:01. The description is as above.
The target in another experiment is HLA-B*27:05. Described as above.
The target of the next experiment is HLA-B*40:01. Described as above.
The target in the next experiment is HLA-B*07:02. The experiment is described as above.
Another experiment concerns the target HLA-B*46:01. The experiment is described as above.
The target of another experiment is HLA-B*39:01. The description is as above.
The target of another experiment is HLA-B*57:01. The experiment is described as above.
The next experiment deals with HLA-A*69:01. The description is as above.
A further experiment concerns the target HLA-B*58:01. The description is as above.
The next experiment concerns the target HLA-A*32:01. The experiment can be described thus: IEDB peptide-MHC binding, purified MHC/competitive/radioactivity; filed as Kd, often an IC50 or EC50 that approximates it; ≥ and ≤ were set here for values at or beyond the usual limits of such assays.
The target in experiment [7] is HLA-B*15:01. The description is as above. The settings on record: source organism: Vaccinia virus WR.
In a further experiment the target is HLA-A*30:01. The description is as above. The settings on record: source organism: Vaccinia virus WR.
Experiment [8] deals with HLA-B*08:01. Described as above. The settings on record: source organism: Vaccinia virus WR.
The target of a further experiment is HLA-B*18:01. The experiment can be described thus: IEDB peptide-MHC binding, purified MHC/direct/fluorescence; filed as Kd, often an IC50 or EC50 that approximates it; ≥ and ≤ were set here for values at or beyond the usual limits of such assays. The following applies: source organism: Mycobacterium avium 104.
The target of another experiment is HLA-B*48:01. The description is as above. The settings on record: source organism: Mycobacterium avium 104.
The target of another experiment is HLA-A*02:01. The experiment is described as above.
Experiment [9] concerns the target HLA-B*08:01. The description is as above.
The target of experiment [10] is HLA-A*29:02. The experiment can be described thus: IEDB peptide-MHC binding, purified MHC/competitive/fluorescence; filed as Kd, often an IC50 or EC50 that approximates it; ≥ and ≤ were set here for values at or beyond the usual limits of such assays.
Experiment [11] has as its target HLA-A*26:01. Briefly: IEDB peptide-MHC binding, purified MHC/direct/fluorescence; filed as Kd, often an IC50 or EC50 that approximates it; ≥ and ≤ were set here for values at or beyond the usual limits of such assays. The following applies: source organism: Yersinia pestis Nepal516.
Where [12] appears, read: source organism: Vaccinia virus WR.
[13] abbreviates: source organism: Mycobacterium tuberculosis variant bovis.
Where [14] appears, read: source organism: Salmonella enterica subsp. enterica serovar Typhi.
Setting [15] is: source organism: Mycobacterium tuberculosis.
[16] abbreviates: source organism: Mycobacterium avium 104.
Where [17] appears, read: source organism: Vaccinia virus Copenhagen.
Setting [18] is: source organism: Yersinia pestis Nepal516.
The mark [19] stands for this setting: source organism: Yersinia pestis.

These results are taken from the Immune Epitope Database (IEDB).

As usually defined, the Kd is the equilibrium constant for the complex coming apart.

Some results are limits rather than exact numbers.

With AQYASTLSV, in the experiment with HLA-B*15:03 (setting [12]), the dissociation constant Kd came to 0.000162 µM.

In turn, ATMATRRGY yielded a dissociation constant (Kd) with HLA-A*03:01 [1] (source organism: Escherichia coli) of 0.125 µM.

Turning to DTDPLPVVF, the dissociation constant Kd is 0.236 µM with HLA-A*01:01 (setting [13]) and ≥ 20 µM in the experiment with HLA-A*29:02 [2] (source organism: Mycobacterium tuberculosis str. Haarlem).

With FAHDDRYLY, the Kd with HLA-B*15:01 [3] (setting [14]) turned out to be 0.2 µM; with HLA-A*26:01 [4] it was 0.0544 µM; in the experiment with HLA-B*35:01 (setting [14]), 0.0002 µM.

For the sequence FHSRFVQAL, the Kd with HLA-A*31:01 (setting [15]), with HLA-B*44:02 (setting [15]), with HLA-B*15:01 [5] (setting [15]), in the experiment with HLA-A*11:01 (setting [15]), with HLA-A*03:01 [6] (setting [15]) and in the experiment with HLA-B*27:05 (setting [15]) was ≥ 20 µM throughout. For the same sequence, the dissociation constant Kd in the experiment with HLA-A*01:01 (setting [15]) is ≥ 20 µM; with HLA-B*40:01 (setting [15]) it was ≥ 20 µM; in the experiment with HLA-B*07:02 (setting [15]), ≥ 20 µM; with HLA-B*46:01 (setting [15]) it was ≥ 20 µM; in the experiment with HLA-B*39:01 (setting [15]), 0.0399 µM; in the experiment with HLA-A*29:02 [2] (setting [15]), ≥ 20 µM. Further, the Kd with HLA-B*57:01 (setting [15]), with HLA-A*69:01 (setting [15]) and with HLA-B*58:01 (setting [15]) was ≥ 20 µM each time.

Turning to FSKKKVCFV, the Kd was ≥ 35.4 µM with HLA-A*32:01 (setting [12]); 13.1 µM in the experiment with HLA-B*15:03 (setting [12]); 1.85 µM with HLA-B*15:01 [7]; 1.16 µM in the experiment with HLA-A*30:01; 0.00598 µM in the experiment with HLA-B*08:01 [8].

For GTDSNGMLW, the dissociation constant Kd with HLA-A*01:01 (setting [15]) is 0.0748 µM; with HLA-A*29:02 [2] (source organism: Mycobacterium tuberculosis H37Rv), ≥ 20 µM.

Turning to HQAIISDVL, the dissociation constant Kd with HLA-A*31:01 (setting [13]), in the experiment with HLA-B*44:02 (setting [13]), in the experiment with HLA-A*03:01 [6] (setting [13]), with HLA-B*27:05 (setting [13]), with HLA-A*01:01 (setting [13]) and in the experiment with HLA-B*07:02 (setting [13]) was ≥ 20 µM each time. The Kd is ≥ 20 µM with HLA-B*46:01 (setting [13]); 0.0424 µM with HLA-B*39:01 (setting [13]); ≥ 20 µM with HLA-A*29:02 [2] (setting [13]); ≥ 20 µM with HLA-B*57:01 (setting [13]); ≥ 20 µM with HLA-A*69:01 (setting [13]); ≥ 20 µM with HLA-B*58:01 (setting [13]).

With IAHVRDVVM, the dissociation constant Kd with HLA-A*31:01 (setting [16]), with HLA-B*44:02 (setting [16]), with HLA-B*18:01, with HLA-A*11:01 (setting [16]), with HLA-A*03:01 [6] (setting [16]) and with HLA-B*27:05 (setting [16]) was ≥ 20 µM throughout. The Kd with HLA-B*48:01, in the experiment with HLA-A*02:01 (setting [16]), with HLA-A*01:01 (setting [16]), with HLA-B*40:01 (setting [16]), with HLA-A*29:02 [2] (setting [16]) and with HLA-A*69:01 (setting [16]) was ≥ 20 µM throughout. The Kd with HLA-B*08:01 [9] (setting [16]) was 0.182 µM; with HLA-B*58:01 (setting [16]) it was ≥ 20 µM.

Turning to IIFMNLYSF, the Kd came out at 0.00125 µM in the experiment with HLA-A*32:01 (setting [17]) and 0.0107 µM with HLA-B*15:03 (setting [17]).

In the case of IKENSIYSF, in the experiment with HLA-B*15:03 (setting [12]), the Kd came out at 0.00145 µM.

As to IKTMMINPF, the equilibrium dissociation constant (Kd) with HLA-B*15:03 (setting [12]) amounted to 0.000191 µM.

For ILVPNINIL, the equilibrium dissociation constant (Kd) with HLA-B*15:03 (setting [12]) is 0.6 µM.

For KVREHTFVK, the Kd is 0.148 µM with HLA-A*32:01 (setting [12]); 19.3 µM with HLA-B*15:03 (setting [12]); 4.12 µM with HLA-B*15:01 [7]; 0.00212 µM with HLA-A*30:01; ≥ 45.4 µM with HLA-B*08:01 [8].

Turning to MMVSTENNL, the equilibrium dissociation constant (Kd) in the experiment with HLA-B*15:03 (setting [12]) is 0.011 µM.

Regarding NKVLCISFF, in the experiment with HLA-B*15:03 (setting [12]), the Kd worked out at 0.0414 µM.

Take NSYTLLLAY: the Kd with HLA-B*15:01 [3] (setting [18]) came to 0.676 µM; with HLA-B*35:01 (setting [18]) it was 0.049 µM.

For the sequence QKMHNHYAY, in the experiment with HLA-A*29:02 [10] (source organism: Escherichia coli HS), the Kd is 0.0199 µM.

In the case of QQSEARRML, the dissociation constant (Kd) with HLA-A*31:01 (setting [18]) is ≥ 20 µM; with HLA-B*44:02 (setting [18]), ≥ 20 µM; with HLA-B*15:01 [5] (setting [19]), 0.109 µM; with HLA-A*11:01 (setting [18]), ≥ 20 µM; with HLA-A*03:01 [6] (setting [18]) it was ≥ 20 µM; in the experiment with HLA-B*27:05 (setting [18]), ≥ 20 µM. The Kd in the experiment with HLA-A*26:01 [11] was ≥ 20 µM; with HLA-A*02:01 (setting [19]), 0.703 µM; with HLA-A*01:01 (setting [18]) it was ≥ 20 µM; with HLA-B*40:01 (setting [18]) it was ≥ 20 µM; with HLA-B*07:02 (setting [19]), 0.397 µM; with HLA-B*39:01 (source organism: Yersinia pestis CA88-4125) it was 2.09 µM. The Kd is ≥ 20 µM in the experiment with HLA-A*69:01 (setting [18]), 6.41 µM in the experiment with HLA-B*08:01 [9] (setting [19]) and ≥ 20 µM with HLA-B*58:01 (setting [18]).

Regarding SIYFLRGNH, the Kd in the experiment with HLA-A*03:01 [1] (source organism: Entamoeba histolytica HM-1:IMSS) is ≥ 20 µM.

Regarding SKYAGINIL, the Kd was found to be 16.1 µM with HLA-A*32:01 (setting [12]); 0.000271 µM with HLA-B*15:03 (setting [12]); 5.64 µM with HLA-B*15:01 [7]; 0.546 µM in the experiment with HLA-A*30:01; 16.3 µM with HLA-B*08:01 [8].

In turn, SMIDNSHLE had a Kd in the experiment with HLA-A*29:02 [10] (source organism: Cryptosporidium parvum Iowa II) of 0.0683 µM.

Consider SNENGGPPL, for which, in the experiment with HLA-B*39:01 (source organism: Influenza A virus (A/Cameron/1946(H1N1))), the Kd is ≥ 20 µM.

For the sequence SQFTCSLAV, in the experiment with HLA-B*15:03 (setting [12]), the Kd is 0.00147 µM.

On to VMVTSKPLF, for which the Kd came to 18.1 µM with HLA-A*32:01 (setting [12]); 0.00879 µM in the experiment with HLA-B*15:03 (setting [12]); 0.0159 µM with HLA-B*15:01 [7]; 15.6 µM with HLA-A*30:01; 3.54 µM with HLA-B*08:01 [8].

For VSRLFWYGY, in the experiment with HLA-A*29:02 [10] (source organism: Bacillus anthracis str. A0488), the Kd was determined as 0.0759 µM.

In turn, YMYIMKLHH displayed a Kd with HLA-A*29:02 [10] (source organism: Mycobacterium leprae) of 0.036 µM.

For the sequence YQTSVSQVA, the Kd with HLA-B*15:03 (setting [12]) came out at 0.00145 µM.
